Experimental data published in patent US20260250421A1.

Target: His-tagged dog TROP2 protein (dog)
Assay: SPR Biacore 8K, Ab on Protein A chip

Row | Kd [nM] | koff [s⁻¹] | kon [M⁻¹ s⁻¹] | Binder
1 | 27.2 | 0.000812 | 29900 | DS-1062 analog-LALA (antibody, V domains shown) VH: QVQLVQSGAEVKKPGASVKVSCKASGYTFTTAGMQWVRQAPGQGLEWMGWINTHSGVPKYAEDFKGRVTISADTSTSTAYLQLSSLKSEDTAVYYCARSGFGSSYWYFDVWGQGTLVTVSS VL: DIQMTQSPSSLSASVGDRVTITCKASQDVSTAVAWYQQKPGKAPKLLIYSASYRYTGVPSRFSGSGSGTDFTLTISSLQPEDFAVYYCQQHYITPLTFGQGTKLEIKR
2 | 42 | 0.00858 | 204000 | Sacituzumab analog (antibody, V domains shown) VH: QVQLQQSGSELKKPGASVKVSCKASGYTFTNYGMNWVKQAPGQGLKWMGWINTYTGEPTYTDDFKGRFAFSLDTSVSTAYLQISSLKADDTAVYFCARGGFGSSYWYFDVWGQGSLVTVSS VL: DIQLTQSPSSLSASVGDRVSITCKASQDVSIAVAWYQQKPGKAPKLLIYSASYRYTGVPDRFSGSGSGTDFTLTISSLQPEDFAVYYCQQHYITPLTFGAGTKVEIKR
